Laboratory results reported in US12636342B2, “TARS derived from Akkermansia muciniphila or fragment thereof, and use thereof” (KOREA RESEARCH INSTITUTE OF BIOSCIENCE AND BIOTECHNOLOGY, priority 2020, dated 2026).
Entries after “also recorded” stand apart in the source; their conditions may differ.

B1: ΔU1AmTARS: AmTARS mutant with deletion of unique region U1 (residues 99-113); construct SEQ ID NO 7 (protein)
chain: MSEHKERKTLEERQQMSDLERLRHSCAHVLATAICRLWPDAQLAGGPAVDNGFYYDVELDHRISTEDFERIEEEMKKVVKENQVFQKEVISRADAMKMSRFKIDLLNDIPEDEEISLYRNGDFTDLCAGPHVGRTGNCKAFKIMSVASAFYKGDKNRPMLQRIYGTCFPNRTQLDEHLERLEEARRRDHRKLGRELGLFCIDESVGQGLILWKPKGALIRRSLQDFITEELDKLGYSQVYTPNIGKLDLYRTSGHFPYYQESQYAPIPERDAMEKLSQEGASCAELFNGLATGTIEGYMLKPMNCPHHIKIYANDAHSYRDLPVRLAEFGTVYRWEQSGELGGMTRVRGFTQDDAHIFCTPDQLAGEIRQCLGIVKTIFGTLGMTDYRVRLSMRDPESDKYVGSPENWDKAEQALREAAEWLGADYSEEAGEAAFYGPKIDFIVRDAIGREWQLGTVQVDYNLPERFDLHYTGADNKPHRPVMVHRAPFGSMERFTGLLIEHFEGKFPTWLSPEQVRVLPISDKVTDVAAAHRTALAARGVRVTVDETPDKIGAKIRNARLDRVPYMLVLGQREAEDGTVSVRHRDKGDLGAMPFEQFADLVAREIAERHISPVI
modifications: misc_feature 1..1848 Akkermansia muciniphila TARS_del_Functional region 1
B2: ΔU2AmTARS: AmTARS mutant with deletion of unique region U2 (residues 290-312); construct SEQ ID NO 8 (protein)
chain: MSEHKERKTLEERQQMSDLERLRHSCAHVLATAICRLWPDAQLAGGPAVDNGFYYDVELDHRISTEDFERIEEEMKKVVKENQVFQKEVISRADAMKMAESGELGALGPRSEPSRFKIDLLNDIPEDEEISLYRNGDFTDLCAGPHVGRTGNCKAFKIMSVASAFYKGDKNRPMLQRIYGTCFPNRTQLDEHLERLEEARRRDHRKLGRELGLFCIDESVGQGLILWKPKGALIRRSLQDFITEELDKLGYSQVYTPNIGKLDLYRTSGHFPYYQESQYAPIPERDAMEYMLKPMNCPHHIKIYANDAHSYRDLPVRLAEFGTVYRWEQSGELGGMTRVRGFTQDDAHIFCTPDQLAGEIRQCLGIVKTIFGTLGMTDYRVRLSMRDPESDKYVGSPENWDKAEQALREAAEWLGADYSEEAGEAAFYGPKIDFIVRDAIGREWQLGTVQVDYNLPERFDLHYTGADNKPHRPVMVHRAPFGSMERFTGLLIEHFEGKFPTWLSPEQVRVLPISDKVTDVAAAHRTALAARGVRVTVDETPDKIGAKIRNARLDRVPYMLVLGQREAEDGTVSVRHRDKGDLGAMPFEQFADLVAREIAERHISPVI
modifications: misc_feature 1..1824 Akkermansia muciniphila TARS_del_Functional region 2

How the values were obtained:
[1] = test system: mouse bone marrow-derived macrophages (BMDMs); test: ELISA of immune cytokine secretion in BMDMs under normal conditions; format: cell-based; conditions: normal (non-inflammatory) conditions, 24 h
Experimental: Specifically, mouse bone marrow-derived macrophages (BMDMs) as mouse-derived immune cells were extracted from the mouse thighbone and shinbone, and then cultured in DMEM containing 10% fetal bovine serum (FBS) and antibiotics. Human macrophages (THP1) as human-derived immune cells were cultured in RPMI media containing 10% FBS and antibiotics.
The cultured cells were treated with AmTARS at 0.1 μM, 0.2 μM, and 0.5 μM for 24 h to obtain cell cultures. For cell removal, the media were centrifuged at 500×g for 10 min to obtain supernatants, which were then analyzed using an ELISA set (mouse interleukin (IL)-6, mouse IL-10, mouse tumor necrosis factor (TNF)-α, human IL-6, human IL-10, human TNF-α; BD Biosciences) to investigate the secretion of mouse- and human-derived immune cytokines. […]

[2] = Aminoacylation reaction (malachite green phosphate assay); format: biochemical; conditions: L-threonine, ATP, 30 min, free Pi at 620 nm
Experimental: TARS is an […] involved in protein synthesis, and the domain and site involved in its function are well known. The constructed deletion mutants were confirmed to have deletions of parts irrelevant to the function, but the aminoacylation reaction experiment was conducted to determine whether the deletion mutants performed the intrinsic functions thereof appropriately.
Specifically, a 2× reaction solution (100 mM Tris-HCl (pH 7.5), 20 mM MgCl2, 200 mM NaCl, 200 mM KCl, 2 mM DTT, 500 μM ATP, and 5 mM L-threonine) was prepared, and 25 μL of a reaction solution, 20 μL of distilled water, and 5 μL of protein were added to make a final 50 μL volume, followed by incubation for 30 min. Thereafter, a reaction was conducted using a malachite green phosphate assay kit (Bioassay Systems) for 30 min, and the free monophosphate group (Pi) was measured at a wavelength of 620 nm.

Raw 264.7 cells = test: ELISA of immune cytokine secretion in LPS-treated Raw 264.7 cells; format: cell-based, mouse; conditions: Raw 264.7, LPS, 24 h
Experimental: Next, to determine whether the regulation of immune cytokine secretion by AmTARS in an inflammatory environment was induced by the two functional sites, the mouse-derived immune cell Raw 264.7 cells were treated with LPS to induce an immune response by the method as in Example 3, and treated with AmTARS, ΔU1AmTARS, and ΔU2AmTARS for 24 h separately to obtain cell cultures. The obtained cell cultures were analyzed for Immune cytokine secretion by way of the same method as in Example 2.

[3] = test system: mouse model of dextran sulfate sodium (DSS)-induced colitis; test: DSS-induced colitis (inflammatory bowel disease) mouse model, intraperitoneal administration; format: in vivo; conditions: inflammatory bowel disease mouse model; for distribution of B cells in the colon: normal mice
Experimental: We evaluated the anti-inflammatory function of AmTARS in a mouse model of dextran sulfate sodium (DSS)-induced colitis. First, we assessed dose-dependent responses (i.e., changes in body weight and colon length) to intraperitoneal (i.p.) administration of AmTARS (0.05-0.4 mg/kg) once every other day for 10 days (FIG. 10A).
The disease activity score was calculated by adding up scores ranging from 0 to 4 points for each item of bloody stool, diarrhea, and weight loss, and the epithelial damage score was calculated by assigning 0 to 4 points according to the degree of colon tissue damage.
Next, to measure IgA, mouse feces were collected and diluted in PBS containing a protein inhibitor, and then a supernatant with impurities removed was obtained, and 100 μL was placed in each well of a 96-well plate to perform protein coating at 4° C. for 2 h. The plate was washed three times with a washing solution (50 mM Tris, 0.2% in PBS) and then incubated with 100 μL of blocking solution at room temperature for 1-2 h, followed by washing. HRP conjugated IgA antibody (1:30000) was added and then incubated at room temperature for 1 h, followed by washing. Thereafter, 100 μL of a substrate solution was added, followed by incubation for 30 min, and then 50 μL of a stop solution was added, followed by measurement at 405-450 nm by an ELISA reader. […]

Molecule	secretion/production of IL-10 [1]	aminoacylation reaction / enzymatic activity [2]	secretion of IL-6 (Raw 264.7 cells)	secretion of IL-10 (Raw 264.7 cells)	secretion of TNF-α (Raw 264.7 cells)	amount of IgG increased by an inflammatory bowel disease [3]	distribution of B cells in the colon [3]
B1	abolished the IL-10 production	an aminoacylation reaction was shown; also recorded: Neither mutant protein was different from the wild-type	no effect	no effect	no effect	did not show an effect of reducing the amount of IgG	reduced the efficacy of increasing B cells in the colon
B2	abolished the IL-10 production	an aminoacylation reaction was shown; also recorded: Neither mutant protein was different from the wild-type	no effect	no effect	no effect	did not show an effect of reducing the amount of IgG	reduced the efficacy of increasing B cells in the colon
